Data as given in the nanobody polyreactivity screen of Harvey et al. (2022).

Experiment: yeast display, Sf9 membrane polyspecificity reagent, FACS + sequencing; frameworks hold sequencing errors
How it was run: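 Sorting gates, low and high (top ~1%), were placed on anti-HA fluorescence to track expression and on streptavidin fluorescence to track reagent binding. A clone's polyreactivity label is taken from the gate it came out of. The reagent was 10% biotinylated, detergent-solubilized Sf9 membrane, applied for 1 hour at 4 °C to galactose-induced yeast display cells.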

Sequence | polyreactivity (PSR sort gate)
QVQLVESGGGLVQAGGSLRLSCAASGRIFLVNAMGWYRQAPGKEREFVAAITDNTGSTYYADSVKGRFTISRDNAKNTVYLQMNSLKPEDTAVYYCAKQRGNKRIGYDSWGQGTQVTVSS | low polyreactivity
QVQLVESGGGLVQAGGSLRLSCAASGRIFLVYAMGWYRQAPGKERELVATIRSGGRTNYADSVKGRFTISRDNAKNAVYLQMNSLKPEDTAVYYCNAPPYTSSDQDPAGDYEYWGQGTQVTVSS | high polyreactivity
QVQLVESGGGLVQAGGSLRLSCAASGRIFLVYGMGWSRQAPGKERELVASITDRGGSTYYADSVKGRFTISRDNAKNTVYLQMYSLKPEDTAVYYCAADGAFYASTEMDYWGQGTQVTVSS | low polyreactivity
QVQLVESGGGLVQAGGSLRLSCAASGRIFLWNAMGWYRQAPGKERELVAGIRWSTGSTYYADSVKGRFTISRDNAKNTVYLQKNSLKREDTAVYYCNARSFATGSKVPARGYWGQGTQVTVSS | high polyreactivity
QVQLVESGGGLVQAGGSLRLSCAASGRIFLYNDMGWYRQAPGKERELVATITWNVTSTYYADSVKGRFTISRDNAKYTVYLQLNSLKPEDTAVYYCARGDHVGSAGYDYWGQGTQVTVSS | low polyreactivity
QVQLVESGGGLVQAGGSLRLSCAASGRIFLYNGMGWYRQAPGKERELVAGITTGGNTNYADSVKGRFTISRDNAKNTVYLQMNSLKPEDTAVYYCAAEVIVYGWSPDYDYWGQGTQVTVSS | low polyreactivity
QVQLVESGGGLVQAGGSLRLSCAASGRIFLYTAMGWYRQAPGKERELVAAIDGGGTTYADSVKGRFTISRDNAKNTVYLQMNSLKPEDTAVYYCAGDWYYQYSIYRYGYWGQGTQVTVSS | low polyreactivity
QVQLVESGGGLVQAGGSLRLSCAASGRIFLYYAMGWYRQAPGKERELVAAITRSGGTTYYADSVKGRFTISRDNAKNTVYLQMNSLKPEDTAVYYCAALGQYSRADYEYWGQGTQVTVSS | high polyreactivity
QVQLVESGGGLVQAGGSLRLSCAASGRIFLYYAMGWYRQAPGKERELVAGISTGGSTNYADSVKGRFTISRDNAKNTVYLQMNSLKPEDTAVYYCAVVDVEEHVGHWGQGTQVTVSS | low polyreactivity
QVQLVESGGGLVQAGGSLRLSCAASGRIFMPYAMGWYRQARGKERELFAAITSTGGSTYYADSVKGRFTISRDNAKNTVYIQMNSQKPEDTAVYYCNARRGYQPHRRDYWGQGTQVTLSS | low polyreactivity
QVQLVESGGGLVQAGGSLRLSCAASGRIFNANAMGWYRPAPGKESELVAAISSSGGSTYYSDSVKGRFTISRDNAKNTVYLHMNSLKPEDTAVYYCKDEWGWRYSSDFDYWGQGTQVTVSS | low polyreactivity
QVQLVESGGGLVQAGGSLRLSCAASGRIFNAYAMGWYRQAPGKERELVATITGSGGRTHYADSVKGRFTISRDNAKNTVYLQMNSLKPEDTAVYYCAATAQYYHYHLAKYDYWGQGTQVTVSS | low polyreactivity
QVQLVESGGGLVQAGGSLRLSCAASGRIFNHYAMGWYRQAPGKERELVASITSGAGTNYADSVKGRFTISRDNAKNTVYLQMNSLKPEDTAVYYCNADLYDYYYSDGDYWGQGTQVTVSS | high polyreactivity
QVQLVESGGGLVQAGGSLRLSCAASGRIFNLYVMGWYRQAPGKERELVATISSGGSTNYADSVKGRFTISRDNAKNTVYLQMNSLKPEDTAVYYCAAREWRSFDYWGQGTQVTVSS | low polyreactivity
QVQLVESGGGLVQAGGSLRLSCAASGRIFNLYVMGWYRQAPGKERELVATISSGGSTNYADSVKGRFTISRDYAKNTVYLQMNSLKPEDTAVNYCAKPYIVYYTMDYWGQGTQVTVSS | low polyreactivity
QVQLVESGGGLVQAGGSLRLSCAASGRIFNRNAMGWYRQAPGKEREFVAAISRSGGTTYYADSVKGRFTFSRDNAKNTVYLQINSLKPEDTAFYYCNAVRYQTEVDYWGQGTQVTVSS | high polyreactivity
QVQLVESGGGLVQAGGSLRLSCAASGRIFNRNAMGWYRQAPGKERELVAAITGSGGITYYADSVKGRFTISRDNAKNTVYLQMNSLKPEDTAVYYCAARAKFLSLPTYDYWGQGTQVTVSS | high polyreactivity
QVQLVESGGGLVQAGGSLRLSCAASGRIFNRNAMGWYRQPPGKERELVAAISWSGTRTYYADSVKGRFTISRDNAKNTVYLQMNSLKPEDTAVYYCAAGASLYSYYGFLPYDYWGQGTQVTVSS | high polyreactivity
QVQLVESGGGLVQAGGSLRLSCAASGRIFNRYAMGWYRQAPGKERELVAAITSGGSTYYADSVKGRFTISRDNAKNTVYLPMNSLKREDTAFYYCAALPRSNSYGYCGQGTQVTVSS | high polyreactivity
QVQLVESGGGLVQAGGSLRLSCAASGRIFNTYAMGWYRQAPAKERELVAAITSSGGSTYYADSVKGRFTISRDNAKNTVYLQMNSLKPEDTAVYYCNAGSLHRRYYYEGDYWGQGTQVTVSS | high polyreactivity
QVQLVESGGGLVQAGGSLRLSCAASGRIFNWYGMGWYRQAPGKERELVATISSSGDSTYYADSVKGRFTISRDNAKNTVYLQMNSLKPEDTAVFYCAKRARYKFGYWGQGSQVTVSS | high polyreactivity
QVQLVESGGGLVQAGGSLRLSCAASGRIFNYNAIGWYRQAPGKERELVAAITCSGGSTYYADSVKGRFTISRDNAQYNVYLQMNSLKPEDTAVYYCIALITYSSDYWGQGTQVTVSS | low polyreactivity

Sequence | polyreactivity (PSR sort gate)
QVQLVESGGGLVQAGGSLRLSCAASGRIFPAYAMGWYRQAPGKERELVAAITGGGSTNYADSVKGRFTISRDNAKHTVYLQMNSLKPEDTAVYYCNAAVVWPNRQENDYWGQGTQVTVSS | low polyreactivity
QVQLVESGGGLVQAGGSLRLSCAASGRIFPAYAMGWYRQAPGTERELVASIRRGGITYADSVKGRFTISRDNAKNTVYLQMNSLKPEDTAVYYCNADYRGWGYHMDYWGQGTQVTVSS | low polyreactivity
QVQLVESGGGLVQAGGSLRLSCAASGRIFPGNAMGWYRQSPGKERELVAGISFSGGRTYYADSVKGRFSISRDNAKNTVYLQMNSLKPEDTAVYYCATKYQQHWWRYDYWGQGTQVTVSS | low polyreactivity
QVQLVESGGGLVQAGGSLRLSCAASGRIFPGYAMGWYRQAPGKERELVAAISASGGSTYYADSVKGRFTISRDNAKNTVYLQMNSLKPEDTAVYDCNAVYRLIRFDYWGQGTQVTVSS | high polyreactivity
QVQLVESGGGLVQAGGSLRLSCAASGRIFPGYAMGWYRQAPGKQRELVAGISNDASTNYADSVKGRFTISRDNAKNTVYLQMNSLKPEDTAVFYCAAEISYLSVPRYDYWGQGTQVTVSS | low polyreactivity
QVQLVESGGGLVQAGGSLRLSCAASGRIFPHNAMGWYRQAPGKERELVAAIRFSGGNTYYADSVKGRFTISRDNAKNTVYLQLNSLKPEDTAVYYCFVYGYVPYNYWGQGTQVTVSS | low polyreactivity
QVQLVESGGGLVQAGGSLRLSCAASGRIFPKYAMGWYRQAPGKERELVAAISSSGGSTYYADSVKGRFTISRDNAKNTVYLQMNSLKPEDTAVYYCAAEQYSYGYTIYEYWGQGTQVTVSS | high polyreactivity
QVQLVESGGGLVQAGGSLRLSCAASGRIFPLNAMGWYRQAPGKERELVAAIRNGGRTNYADSVKGRFTISPDNAKNTVYVQMNSLKPEDTAVYYCSFTLSSVLQYDSWGQGTQVTVSS | low polyreactivity
QVQLVESGGGLVQAGGSLRLSCAASGRIFPLYAMGWYRQAPGKERELGAAISSGGTTYYADSVKGRFTISRDNAKNTVYLQMNSLKPEDTAVYYCARRPAQRWGRFDYWGQGTQVTVSS | low polyreactivity
QVQLVESGGGLVQAGGSLRLSCAASGRIFPSYTMGWYRQAPGKERELVAGITKSGSSTYYADSVKGRFTISRDNAKNTVYLQMNSLKPEDTAVYYCAAVYGNPSYRYGYWGQGTQVTVSS | high polyreactivity
QVQLVESGGGLVQAGGSLRLSCAASGRIFPTNAMGWYRQAPGKERELVASIDSGGSTKYADSVKGRFTISRDNAKNTVYLLMNSLKPEDTAVYYRALQVLNYDYWGQGTQVTVSS | low polyreactivity
QVQLVESGGGLVQAGGSLRLSCAASGRIFPTYAMGWYRQAPGKERELVAGITSGGRTNYADSVKGRFTISRDNAKNTVYLQMNSLKPEDTAVYYCATVSQQSRSLGIDRIYYWGQGTQVTVSS | high polyreactivity
QVQLVESGGGLVQAGGSLRLSCAASGRIFPVNAMGCYRQAPGKEREFVSAIRGTGTSTYYADSVKGRFTISRDNAKNTVYLQMNSLKPEDTAVYYCAARGYVQYQGQNVNTFDYWGQGTQVTVSS | low polyreactivity
QVQLVESGGGLVQAGGSLRLSCAASGRIFPVNAMGWYRQAPGKERELVATISSGDITNYADSVKGRFTISRDNAKNTVYLQMNSLKPEDTAVYYCAADYTWRAWTYYGIKYNYWGQGTQVTVSS | low polyreactivity
QVQLVESGGGLVQAGGSLRLSCAASGRIFPVYAMVSYRQAPGKERELVAAISKRDGSTSYADSVKGRFTISRDNAKNTVYLQMHSLKPEDTAVYYCNVLGYGSSYDYWGQGTQVTVSS | low polyreactivity
QVQLVESGGGLVQAGGSLRLSCAASGRIFPWYAMGWYRQAPGKERELVAAITSGGGSTSYADSVKGRFTISRDNAKNTVYLQMNRLKPEDTAVYYCAARRWISSHSYKYGYWGQGTQVTVSS | high polyreactivity
QVQLVESGGGLVQAGGSLRLSCAASGRIFPWYAMGWYRQAPGKERELVATISSSGRTNYADSVKGRFTISRDNAKNTVYLQLNSLQPEDTAVYFCAATLYHYWYADFDYWGQGTQVTVSS | high polyreactivity
QVQLVESGGGLVQAGGSLRLSCAASGRIFPYNAMGWYRQAAGKERELVAAISLSGDSTYYADSVKGRFTISRDNAKNTVFLHMNSLKPEDTAVYYCNAPSYWYYPVLGSFLTFEYWGQGTQVTVSS | low polyreactivity
QVQLVESGGGLVQAGGSLRLSCAASGRIFPYNAMGWYRQAPGKERELVAAISFGGGRTYYADSVKGRFTISRDNAKNTVYLQMNRLKPEDTAVYYCNTASPQDIVFRVFYGGDYWGQGTQVTVSS | low polyreactivity
QVQLVESGGGLVQAGGSLRLSCAASGRIFPYYAMGWYRQAPGKEREFVAAITKRGGSTSYADSVKGRFTISRDNAKNTVYLQMNSLKPEDTAVYYCAARRGSGIVTYYGGDYWGQGTQVTVSS | low polyreactivity
QVQLVESGGGLVQAGGSLRLSCAASGRIFPYYAMGWYRQAPGKERELVASIRYSAVNTYYADSVKGRFTISRDNAKNTVYVQMNSLKPEDTAVYYCWYTQNTLGNYWGQGTQVTVSS | low polyreactivity
